{
  "source": "paper PMC5667935",
  "about": "“AMPylation targets the rate-limiting step of BiP’s ATPase cycle for its functional inactivation” (eLife, 2017)",
  "key": {"[1]": {"molecular_target": "AMPylated wildtype Chinese hamster BiP (BiP^WT-AMP) (UniProt G3I8R9)", "test": "BLI", "details": "trace 6; AMPylated BiP WT; association in presence of ATP; signal at end of association step (20 min); parent is trace 4; parent: est. 0.95; read off a plot"}, "[2]": {"molecular_target": "wildtype Chinese hamster BiP, unmodified (BiP^WT) (UniProt G3I8R9)", "test": "BLI", "details": "trace 3; association in presence of ATP; signal at end of association step (20 min); parent is trace 1; parent: est. 4.2; read off a plot"}, "[3]": {"molecular_target": "wildtype Chinese hamster BiP, unmodified (BiP^WT) (Chinese hamster (Cricetulus griseus)) (UniProt G3I8R9)", "sequence (G3I8R9 19-654)": "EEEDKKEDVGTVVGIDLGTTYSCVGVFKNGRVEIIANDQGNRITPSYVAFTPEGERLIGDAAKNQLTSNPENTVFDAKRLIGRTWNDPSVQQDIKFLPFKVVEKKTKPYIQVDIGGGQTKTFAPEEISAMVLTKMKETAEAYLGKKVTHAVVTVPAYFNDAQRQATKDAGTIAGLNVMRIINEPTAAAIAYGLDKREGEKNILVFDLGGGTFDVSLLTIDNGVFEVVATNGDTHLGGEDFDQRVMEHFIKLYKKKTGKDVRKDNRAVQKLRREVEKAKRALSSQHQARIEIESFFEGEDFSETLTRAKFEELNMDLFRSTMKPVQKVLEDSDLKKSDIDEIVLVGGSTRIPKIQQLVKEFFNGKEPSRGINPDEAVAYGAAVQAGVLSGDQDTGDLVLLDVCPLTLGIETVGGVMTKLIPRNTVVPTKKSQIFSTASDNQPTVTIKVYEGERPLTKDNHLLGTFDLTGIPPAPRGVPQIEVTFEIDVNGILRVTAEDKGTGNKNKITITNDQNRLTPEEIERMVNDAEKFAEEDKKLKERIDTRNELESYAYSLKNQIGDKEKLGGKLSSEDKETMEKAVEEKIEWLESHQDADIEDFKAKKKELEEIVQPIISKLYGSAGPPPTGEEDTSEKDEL"}, "[4]": {"molecular_target": "T1, Chinese hamster BiP T229A-V461F double mutant (BiP^T229A-V461F), unmodified (Chinese hamster (Cricetulus griseus), UniProt G3I8R9 19-654, T229A | V461F)", "T1 construct": "BiP (Grp78), Chinese hamster (Cricetulus griseus); Construct limits: see note of m1; source: E. coli M15, purified (Ni-NTA)", "T1 sequence (G3I8R9 19-654 T229A/V461F)": "as the sequence (G3I8R9 19-654) above, with T211A, V443F counted along it", "test": "BLI; Octet RED96, streptavidin sensors saturated with biotinylated GST-J (no P15); BiP^T229A-V461F at different concentrations in solution, 1 mM ATP in baseline, association and dissociation; HKM with 0.05% Triton X-100, 24°C; KD from steady state binding signals; binding sensitive to increasing KCl", "details": "both partners purified"}, "[5]": {"molecular_target": "T2, AMPylated Chinese hamster BiP T229A-V461F double mutant (AMPylated BiP^T229A-V461F) (Chinese hamster (Cricetulus griseus), UniProt G3I8R9 19-654, T229A | V461F, AMP on threonine 518 (T518-AMP))", "T2 construct": "BiP (Grp78), Chinese hamster (Cricetulus griseus); Construct limits: see note of m1; source: E. coli M15, purified (Ni-NTA)", "T2 sequence (G3I8R9 19-654 T229A/V461F)": "as the sequence (G3I8R9 19-654) above, with T211A, V443F counted along it", "test": "BLI; Octet RED96, streptavidin sensors saturated with biotinylated GST-J (no P15); BiP^T229A-V461F at different concentrations in solution, 1 mM ATP in baseline, association and dissociation; HKM with 0.05% Triton X-100, 24°C; KD from steady state binding signals; binding sensitive to increasing KCl", "details": "both partners purified"}, "[6]": {"molecular_target": "T3, wildtype Chinese hamster BiP, unmodified (BiP^WT) (Chinese hamster (Cricetulus griseus), UniProt G3I8R9 19-654)", "T3 construct": "BiP (Grp78), Chinese hamster (Cricetulus griseus); also called Grp78; haBiP; source: E. coli M15, purified (Ni-NTA); unmodified control from mock AMPylation reactions without enzyme", "T3 sequence (G3I8R9 19-654)": "as the sequence (G3I8R9 19-654) above", "test": "BLI; Octet RED96, streptavidin sensors with biotinylated GST-J (to 0.4 nm) then saturated with biotinylated P15; BiP 15 µM in HKM with 0.05% Triton X-100 and 2 mM ATP for association; dissociation in protein-free solution with 2 mM ADP or ATP; 24°C; one-phase decay fit of the dissociation", "details": "both partners purified"}, "[7]": {"molecular_target": "T4, AMPylated wildtype Chinese hamster BiP (BiP^WT-AMP) (Chinese hamster (Cricetulus griseus), UniProt G3I8R9 19-654, AMP on threonine 518 (T518-AMP))", "T4 construct": "BiP (Grp78), Chinese hamster (Cricetulus griseus); Same construct as m1, AMPylated at high stoichiometry (intact mass spectrometry); Construct limits: see note of m1; also called BiP-AMP; AMPylated BiP; source: E. coli M15, purified (Ni-NTA)", "T4 sequence (G3I8R9 19-654)": "as above", "test": "BLI; Octet RED96, streptavidin sensors with biotinylated GST-J (to 0.4 nm) then saturated with biotinylated P15; BiP 15 µM in HKM with 0.05% Triton X-100 and 2 mM ATP for association; dissociation in protein-free solution with 2 mM ADP or ATP; 24°C; one-phase decay fit of the dissociation", "details": "both partners purified"}, "[8]": {"molecular_target": "T5, Chinese hamster BiP T518E mutant (BiP^T518E) (Chinese hamster (Cricetulus griseus), UniProt G3I8R9 19-654, T518E)", "T5 construct": "BiP (Grp78), Chinese hamster (Cricetulus griseus); Mimics aspects of AMPylation; Construct limits: see note of m1; source: E. coli M15, purified (Ni-NTA)", "T5 sequence (G3I8R9 19-654 T518E)": "as the sequence (G3I8R9 19-654) above, with T500E counted along it", "test": "BLI; Octet RED96, streptavidin sensors with biotinylated GST-J (to 0.4 nm) then saturated with biotinylated P15; BiP 15 µM in HKM with 0.05% Triton X-100 and 2 mM ATP for association; dissociation in protein-free solution with 2 mM ADP or ATP; 24°C; one-phase decay fit of the dissociation", "details": "both partners purified"}},
  "data": [
    {"molecule": "biotinylated GST-J^WT and biotinylated P15 substrate peptide co-immobilized on a streptavidin BLI sensor (from UniProt Q91YW3) H422Q", "values": [
      {"measurement": "response", "setting": "[1]", "result": 0.1, "unit": "nm"},
      {"measurement": "response", "setting": "[2]", "result": 0.14, "unit": "nm"}
    ]},
    {"molecule": "wildtype J-domain of mouse P58/ERdj6 (residues 384-470) fused to GST (GST-J^WT) (from UniProt Q91YW3 384-470) (domain or fragment)", "values": [
      {"measurement": "rate of ATP hydrolysis by BiP in a single-turnover ATPase assay with wildtype GST-J (2 µM) compared with non-functional GST-J^QPD", "setting": "[3]", "result": "> 4", "unit": "fold"}
    ]},
    {"molecule": "wildtype J-domain of mouse P58/ERdj6 (residues 384-470) fused to GST (GST-J^WT) (domain or fragment, UniProt Q91YW3 384-470, looked up, biotinylated with Biotin-maleimide for the BLI experiments (a fraction of the purified protein); not biotinylated in pull-down, SEC and ATPase assays, J-domain of P58/ERdj6, mouse, residues 384-470; also called model J-domain) QRLLKQSQKRDYYKILGVKRNAKKQEIIKAYRKLALQWHPDNFQNEEEKKKAEKKFIDIAAAKEVLSDPEMRKKFDDGEDPLDAESQ", "values": [
      {"measurement": "Kd", "setting": "[4]", "result": "~14", "unit": "µM"},
      {"measurement": "Kd", "setting": "[5]", "result": "~14", "unit": "µM"}
    ]},
    {"molecule": "biotinylated GST-J^WT and biotinylated P15 substrate peptide co-immobilized on a streptavidin BLI sensor (other, mouse, biotinylated with Biotin-maleimide | biotinylated on the C-terminal lysine, J-domain of P58/ERdj6, mouse, residues 384-470; P15 model BiP substrate peptide (Misselwitz et al., 1998); Not a complex: two separately biotinylated ligands on one sensor surface (GST-J to ~0.4 nm signal, then saturation with P15); the signal is not divided among them; also called sensors carrying GST-J^WT and P15; GST-J^WT-coupled sensors; source: GST-J^WT: purified GST-fusion protein, …) QRLLKQSQKRDYYKILGVKRNAKKQEIIKAYRKLALQWHPDNFQNEEEKKKAEKKFIDIAAAKEVLSDPEMRKKFDDGEDPLDAESQ peptide: ALLLSAPRRGAGKK", "values": [
      {"measurement": "koff", "setting": "[6]", "result": 0.00079, "unit": "s⁻¹"},
      {"measurement": "koff", "setting": "[7]", "result": 0.00329, "unit": "s⁻¹"},
      {"measurement": "koff", "setting": "[8]", "result": 0.00165, "unit": "s⁻¹"}
    ]}
  ]
}
